Reference: US20250114463A1, “LIVER-TARGETED DRUG AND USE THEREOF” (HANMI PHARM. CO., LTD., priority 2021, published 2025)
Bridges are numbered along the chain shown (N, C = ends). Where no end group is shown, it is not given here. [ ]: non-standard residue; d: D form. The star is where a group is joined. Acetyl(2-(4-imidazolyl)) = O=C(Cc1c[nH]cn1)*; Aib = CC(C)(N)C(=O)O

T1: human GIP receptor (human, UniProt P48546 22-466)
T1 sequence (looked up): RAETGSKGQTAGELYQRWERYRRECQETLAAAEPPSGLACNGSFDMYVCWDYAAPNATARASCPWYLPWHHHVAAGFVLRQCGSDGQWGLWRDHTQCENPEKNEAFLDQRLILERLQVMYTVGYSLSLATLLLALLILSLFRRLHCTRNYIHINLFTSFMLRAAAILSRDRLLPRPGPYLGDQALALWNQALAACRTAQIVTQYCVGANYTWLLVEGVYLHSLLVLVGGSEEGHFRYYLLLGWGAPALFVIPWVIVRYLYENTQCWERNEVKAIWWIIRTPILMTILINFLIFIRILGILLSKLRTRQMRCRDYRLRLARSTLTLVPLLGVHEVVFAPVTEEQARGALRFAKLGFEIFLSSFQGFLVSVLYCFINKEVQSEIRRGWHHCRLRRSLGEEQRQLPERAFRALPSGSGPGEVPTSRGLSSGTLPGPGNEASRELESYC

B1: triple agonist of SEQ ID NO: 93 (peptide)
peptide: [Acetyl(2-(4-imidazolyl))][Aib]QGTFTSDYSKYLDEKRQKEFVNWLLAQKC
modifications: bridge 16-20; not fully specified (C-terminus)
B2: triple agonist of SEQ ID NO: 98 (peptide)
peptide: Y[Aib]QGTFTSDYSKALDEKAAKEFVNWLLDHHPSSGQPPPSC
modifications: bridge 16-20; not fully specified (C-terminus)
B3: triple agonist of SEQ ID NO: 83 (peptide)
peptide: [Acetyl(2-(4-imidazolyl))][Aib]EGTFTSDYSIAMDEIHQKDFVNWLLAQC
modifications: bridge 16-20; not fully specified (C-terminus)
B4: triple agonist of SEQ ID NO: 11 (peptide)
peptide: [Acetyl(2-(4-imidazolyl))]GEGTFTSDLSKYLDSRRQQLFVQWLKAGGPSSGAPPPSHG-NH2
B5: triple agonist of SEQ ID NO: 13 (peptide)
peptide: [Acetyl(2-(4-imidazolyl))]GEGTFISDYSIQLDEIAVQDFVEWLLAQKPSSGAPPPSHG-NH2
B6: triple agonist of SEQ ID NO: 87 (peptide)
peptide: [Acetyl(2-(4-imidazolyl))][Aib]QGTFTSDYSIAMDEIHQKDFVNWLLNTC
modifications: bridge 16-20; not fully specified (C-terminus)
B7: triple agonist of SEQ ID NO: 9 (peptide)
peptide: H[Aib]QGTFTSDVSKYLDGQAAQEFVAWLLAGC
modifications: not fully specified (C-terminus)
B8: triple agonist of SEQ ID NO: 84 (peptide)
peptide: [Acetyl(2-(4-imidazolyl))][Aib]EGTFTSDYSIAMDEIHQKDFVDWLLAEC
modifications: bridge 16-20; not fully specified (C-terminus)
B9: triple agonist of SEQ ID NO: 92 (peptide)
peptide: [Acetyl(2-(4-imidazolyl))][Aib]QGTFTSDYSIAMDEIHQKDFVNWLLAQKC
modifications: bridge 16-20; not fully specified (C-terminus)
B10: triple agonist of SEQ ID NO: 89 (peptide)
peptide: [Acetyl(2-(4-imidazolyl))][Aib]QGTFTSDYSKYLDEKRQKEFVQWLLDTKC
modifications: bridge 16-20; not fully specified (C-terminus)
B11: triple agonist of SEQ ID NO: 95 (peptide)
peptide: Y[Aib]QGTFTSDYSKYLDEKRAKEFVQWLLCHHPSSGQPPPS
modifications: bridge 16-20; not fully specified (C-terminus)
B12: triple agonist of SEQ ID NO: 102 (peptide)
peptide: Y[Aib]QGTFTSDYSKALDEKAAKDFVNWLLDQHPSSGQPPPSC
modifications: bridge 16-20; not fully specified (C-terminus); also: ring type not given here
B13: triple agonist of SEQ ID NO: 94 (peptide)
peptide: [Acetyl(2-(4-imidazolyl))][Aib]QGTFTSDYSIAMDEIHQKDFVNWLLNTKC
modifications: bridge 16-20; not fully specified (C-terminus)
B14: triple agonist of SEQ ID NO: 90 (peptide)
peptide: [Acetyl(2-(4-imidazolyl))][Aib]EGTFTSDYSIAMDEIHQKDFVNWLLAQKC
modifications: bridge 16-20; not fully specified (C-terminus)
B15: triple agonist of SEQ ID NO: 96 (peptide)
peptide: Y[Aib]QGTFTSDYSKYLDEKRAKEFVQWLLDHCPSSGQPPPS-NH2
modifications: bridge 16-20
B16: triple agonist of SEQ ID NO: 12 (peptide)
peptide: [Acetyl(2-(4-imidazolyl))]GEGTFISDLSKYMDEQAVQLFVEWLMAGGPSSGAPPPSHG-NH2
B17: triple agonist of SEQ ID NO: 85 (peptide)
peptide: [Acetyl(2-(4-imidazolyl))][Aib]QGTFTSDYSIAMDEIHQKDFVNWLLAQC
modifications: bridge 16-20; not fully specified (C-terminus)
B18: triple agonist of SEQ ID NO: 97 (peptide)
peptide: Y[Aib]QGTFTSDYSKYLDEKRAKEFVQWLLDCHPSSGQPPPS
modifications: bridge 16-20; not fully specified (C-terminus)
B19: triple agonist of SEQ ID NO: 99 (peptide)
peptide: Y[Aib]QGTFTSDYSKALDEKAAKDFVNWLLDHHPSSGQPPPSC
modifications: bridge 16-20; not fully specified (C-terminus)
B20: triple agonist of SEQ ID NO: 91 (peptide)
peptide: [Acetyl(2-(4-imidazolyl))][Aib]EGTFTSDYSIAMDEIHQKDFVDWLLAEKC
modifications: bridge 16-20; not fully specified (C-terminus)
B21: triple agonist of SEQ ID NO: 86 (peptide)
peptide: [Acetyl(2-(4-imidazolyl))][Aib]QGTFTSDYSKYLDEKRQKEFVNWLLAQC
modifications: bridge 16-20; not fully specified (C-terminus)
B22: triple agonist of SEQ ID NO: 88 (peptide)
peptide: [Acetyl(2-(4-imidazolyl))][Aib]QGTFTSDYSKYLDEKRQKEFVQWLLNTKC
modifications: bridge 16-20; not fully specified (C-terminus)
B23: triple agonist of SEQ ID NO: 10 (peptide)
peptide: H[Aib]QGTFTSDVSKYLDGQAAQEFVAWLLAGGGPSSGAPPPSC-NH2
B24: triple agonist of SEQ ID NO: 100 (peptide)
peptide: Y[Aib]QGTFTSDYSKALDEKAAKEFVQWLLDQHPSSGQPPPSC
modifications: bridge 16-20; not fully specified (C-terminus); also: ring type not given here
B25: triple agonist of SEQ ID NO: 101 (peptide)
peptide: Y[Aib]QGTFTSDYSKALDEKAAKEFVNWLLDQHPSSGQPPPSC
modifications: bridge 16-20; not fully specified (C-terminus); also: ring type not given here

Target: human GCG receptor (human, UniProt P47871 26-477)
Sequence (P47871 26-477): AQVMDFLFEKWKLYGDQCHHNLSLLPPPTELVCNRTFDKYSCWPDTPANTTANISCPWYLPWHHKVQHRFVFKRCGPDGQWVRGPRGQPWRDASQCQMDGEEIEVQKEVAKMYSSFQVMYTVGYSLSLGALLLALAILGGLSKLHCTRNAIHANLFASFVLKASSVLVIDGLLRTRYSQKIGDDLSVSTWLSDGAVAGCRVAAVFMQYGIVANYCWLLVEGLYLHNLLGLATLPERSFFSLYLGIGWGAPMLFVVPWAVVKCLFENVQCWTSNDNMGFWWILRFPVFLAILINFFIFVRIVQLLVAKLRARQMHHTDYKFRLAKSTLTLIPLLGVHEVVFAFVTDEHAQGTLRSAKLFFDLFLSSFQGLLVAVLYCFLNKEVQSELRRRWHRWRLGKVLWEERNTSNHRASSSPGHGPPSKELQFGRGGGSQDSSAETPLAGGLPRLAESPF
Assay: cell-based or functional assay

| Binder | in vitro Activity Compared to Native Peptide (%), vs Glucagon [%] |
| --- | --- |
| B1 | 0.3 |
| B2 | 8.2 |
| B3 | 1.3 |
| B4 | < 0.1 |
| B5 | < 0.1 |
| B6 | < 0.1 |
| B7 | 0.13 |
| B8 | < 0.1 |
| B9 | < 0.1 |
| B10 | 0.7 |
| B11 | 0.4 |
| B12 | 29.5 |
| B13 | < 0.1 |
| B14 | < 0.1 |
| B15 | 195 |
| B16 | < 0.1 |
| B17 | < 0.1 |
| B18 | 62.8 |
| B19 | 14.9 |
| B20 | 16.8 |
| B21 | 0.4 |
| B22 | 0.3 |
| B23 | < 0.1 |
| B24 | 12.7 |
| B25 | 13.9 |

Target: human GLP-1 receptor (human, UniProt P43220 24-463)
Assay: cell-based or functional assay

| Binder | in vitro Activity Compared to Native Peptide (%), vs GLP-1 [%] |
| --- | --- |
| B1 | 5.7 |
| B2 | 28.1 |
| B3 | 47.3 |
| B4 | 1.4 |
| B5 | < 0.1 |
| B6 | 0.9 |
| B7 | 32.1 |
| B8 | 4.2 |
| B9 | 0.8 |
| B10 | 7.1 |
| B11 | 2.1 |
| B12 | 23.3 |
| B13 | 0.5 |
| B14 | 7.4 |
| B15 | 34.4 |
| B16 | 0.4 |
| B17 | 4.3 |
| B18 | 10.5 |
| B19 | 20.9 |
| B20 | 31.9 |
| B21 | 28.4 |
| B22 | 9.6 |
| B23 | 46 |
| B24 | 42.2 |
| B25 | 23.2 |

Target: T1, human GIP receptor
Assay: cell-based or functional assay

| Binder | in vitro Activity Compared to Native Peptide (%), vs GIP [%] |
| --- | --- |
| B1 | 0.7 |
| B2 | 47.1 |
| B3 | 0.4 |
| B4 | < 0.1 |
| B5 | < 0.1 |
| B6 | < 0.1 |
| B7 | < 0.1 |
| B8 | < 0.1 |
| B9 | 0.4 |
| B10 | < 0.1 |
| B11 | < 0.1 |
| B12 | 58 |
| B13 | < 0.1 |
| B14 | < 0.1 |
| B15 | 5.2 |
| B16 | < 0.1 |
| B17 | 0.3 |
| B18 | 2.6 |
| B19 | 57.7 |
| B20 | 0.3 |
| B21 | 0.2 |
| B22 | < 0.1 |
| B23 | < 0.1 |
| B24 | 118 |
| B25 | 40.1 |
